# “Also recorded” adds a separate entry of the source.
# Legend:
# septic shock patients = experiment: Phase IIa clinical trial with nangibotide in septic shock patients (NCT03158948): safety, treatment emergent adverse events; assay type: in vivo, human; settings: for safety and tolerability: up to 3 mg/kg/h
# Protocol: This was a European prospective, […], multinational study in 14 centers from 4 countries (France, Belgium, the Netherlands, and Spain). Patients were recruited from July 2017 to June 2018. The study was conducted in accordance with the principles set forth in the Declaration of Helsinki and subsequent amendments, the Guidelines of the International Conference on Harmonization on GCP, as well as the requirements of national drug and data protection laws and other applicable regulatory requirements.
# This was a randomized, double-blind, two-stage, placebo-controlled study. As described in FIG. 7, the study was composed of 2 stages with a similar treatment regimen, in which 0.3, 1.0 or 3.0 mg/kg/h of nangibotide (corresponding to peptide LR12, having an amino acid sequence as set forth in SEQ ID NO: 9, also known as motrem) was tested versus placebo. All patients with a diagnosis of septic shock were considered for study participation. All potential study patients underwent standard care management procedures. Patients with evidence of septic shock according to the Sepsis-3 definition (Singer et al, JAMA 2016) were considered for inclusion (i.e., patients suffering from sepsis and having (i) persisting hypotension requiring vasopressors to maintain their mean arterial pressure ≥65 mm Hg and (ii) a serum lactate level >2 mmol/L (18 mg/dL) despite adequate volume resuscitation).
# After screening for eligibility, patients were randomized to one of the treatment arms. Then, they received either a 5 mg/kg loading dose of nangibotide over 15 minutes followed by a continuous intravenous (i.v.) infusion of nangibotide or a matching placebo on top of standard of care. Treatment with study drug was initiated as early as possible, but no later than 24 hours after the onset of septic shock, defined by the start of vasopressor therapy. Patients were treated until 12 (±2) hours after the resolution of their septic shock (defined as vasopressor withdrawal) with a maximum treatment duration of 5 days (120 hours).
# Stage 1 was performed to investigate ascending doses of nangibotide or placebo in a sequential design in cohorts of 4 patients (3:1 randomization). After completion of a cohort, safety and PK data were reviewed by an independent data safety monitoring board (DSMB) and the study could progress to the next cohort/stage. Stage 2 investigated 3 doses of nangibotide in a randomized, balanced, parallel-group design involving up to 3 doses of nangibotide and a placebo arm.
# Adverse events (AEs) were coded using the MedDRA dictionary version 18.1. Treatment-emergent adverse events (TEAEs) were summarized and listed. Analysis was performed in 49 septic shock patients. The demographic and baseline characteristics were summarized in a descriptive fashion within each population: categorical variables were summarized by contingency tables (frequencies and percentages). sTREM-1 levels at day 1 were also described (mean, standard deviation, standard error, median, quartiles and range, minimum and maximum values). Mortality rates were reported by frequency and percentage. For continuous endpoints, i.e., the sequential organ failure assessment (SOFA), missing data were imputed using LOCF (Last Observation Carry-Forward). For time-to-event analyses, i.e., duration of invasive mechanical ventilation (IMV), duration of continuous renal replacement therapy (CRRT), survival, censored data techniques were utilized. In addition, a sensitivity analysis of time to event data (except survival) was performed using censoring at maximum limit for the corresponding observation period (i.e., either day 28 or day 90). […] The following comparisons were made: each nangibotide dose arm to placebo, all nangibotide doses combined versus placebo, and dose-response using an ordinal trend test. […]
# [1] = test system: anti-nangibotide antibodies; experiment: Immunogenicity: anti-nangibotide antibodies in serum by indirect ELISA; assay type: in vivo, human; settings: baseline, day 8 and day 28
# Protocol: Anti-nangibotide antibodies in serum were evaluated at baseline, day 8 and day 28, by an indirect ELISA method validated according to methods described by Shankar et al. (J Pharm Biomed Anal. 2008 Dec. 15; 48(5):1267-81) and EMA guidance on immunogenicity assessment of biotechnology-derived therapeutic proteins (EMEA/CHMP/BMWP/14327/2006 issued on April 2008). Screening samples determined as positive were further assessed using the confirmatory assay where the cut point was established to have 0.1% of false positive samples (Shankar et al., J Pharm Biomed Anal. 2008 Dec. 15; 48(5):1267-81). […] The sensitivity of the assay was established to be 0.3125 pg/mL.
substance,measurement,setting,value
nangibotide (LQEEDAGEYGCM; TLT-1 peptide),"All TEAEs leading to treatment withdrawal, % of all TEAEs",septic shock patients; 0.3 mg/kg/h,(0.0%)
same,"All TEAEs leading to treatment withdrawal, number",septic shock patients; 0.3 mg/kg/h,0
same,"All TEAEs related to study drug (by investigator), % of all TEAEs",septic shock patients; 0.3 mg/kg/h,(0.0%)
same,"All TEAEs related to study drug (by investigator), number",septic shock patients; 0.3 mg/kg/h,0
same,"All TEAEs with intensity severe, % of all TEAEs",septic shock patients; 0.3 mg/kg/h,(21.4%)
same,"All TEAEs with intensity severe, number",septic shock patients; 0.3 mg/kg/h,12
same,"All serious TEAEs (including death), % of all TEAEs",septic shock patients; 0.3 mg/kg/h,(8.9%)
same,"All serious TEAEs (including death), number",septic shock patients; 0.3 mg/kg/h,5
same,"All TEAEs leading to treatment withdrawal, % of all TEAEs",septic shock patients; 1.0 mg/kg/h,(0.0%)
same,"All TEAEs leading to treatment withdrawal, number",septic shock patients; 1.0 mg/kg/h,0
same,"All TEAEs related to study drug (by investigator), % of all TEAEs",septic shock patients; 1.0 mg/kg/h,(7.1%)
same,"All TEAEs related to study drug (by investigator), number",septic shock patients; 1.0 mg/kg/h,4
same,"All TEAEs with intensity severe, % of all TEAEs",septic shock patients; 1.0 mg/kg/h,(23.2%)
same,"All TEAEs with intensity severe, number",septic shock patients; 1.0 mg/kg/h,13
same,"All serious TEAEs (including death), % of all TEAEs",septic shock patients; 1.0 mg/kg/h,(5.4%)
same,"All serious TEAEs (including death), number",septic shock patients; 1.0 mg/kg/h,3
same,"All TEAEs leading to treatment withdrawal, % of all TEAEs",septic shock patients; 3.0 mg/kg/h,(0.0%)
same,"All TEAEs leading to treatment withdrawal, number",septic shock patients; 3.0 mg/kg/h,0
same,"All TEAEs related to study drug (by investigator), % of all TEAEs",septic shock patients; 3.0 mg/kg/h,(0.0%)
same,"All TEAEs related to study drug (by investigator), number",septic shock patients; 3.0 mg/kg/h,0
same,"All TEAEs with intensity severe, % of all TEAEs",septic shock patients; 3.0 mg/kg/h,(13.1%)
same,"All TEAEs with intensity severe, number",septic shock patients; 3.0 mg/kg/h,8
same,"All serious TEAEs (including death), % of all TEAEs",septic shock patients; 3.0 mg/kg/h,(8.2%)
same,"All serious TEAEs (including death), number",septic shock patients; 3.0 mg/kg/h,5
same,adverse events related to nangibotide treatment at the highest dose,septic shock patients; highest dose,no adverse events related to nangibotide treatment were observed
same,"AEs related to infections and cardiac disorders, nangibotide groups vs placebo","septic shock patients; human, in vivo",proportionally higher in the nangibotide groups
same,"incidence of atrial fibrillation and thrombocytopenia, nangibotide groups vs placebo","septic shock patients; human, in vivo",proportionally higher in the nangibotide groups
same,"number of SAEs/AEs and number of patients with SAEs/AEs, nangibotide groups vs placebo group","septic shock patients; human, in vivo",comparable
same,"suspected unexpected serious adverse reactions (SUSARs), number","septic shock patients; nangibotide-treated group, without obvious explanation",Two
same,adverse events leading to treatment withdrawal,"septic shock patients; septic shock patients, 0.3-3.0 mg/kg/h",No adverse events (AEs) led to treatment withdrawal
same,safety and tolerability,septic shock patients; septic shock patients,safe and well-tolerated
same,safety and tolerability,"septic shock patients; septic shock patients, listed as nangibotide",safe and well tolerated; also recorded: well-tolerated at all doses tested
same,anti-nangibotide antibodies in serum,[1],No anti-nangibotide antibodies were found
